Test results as given in patent publication US20170260289A1 (Novo Nordisk, published 2017).

How the values were obtained:
[1] = target: T1, endogenous TFPI of human plasma (human, UniProt P10646 29-304, limits assumed); assay: cell-based or functional assay
[2] = target: T2, human TFPI alpha (full-length TFPIα) (human, UniProt P10646 29-304); assay: cell-based or functional assay
[3] = target: T1, endogenous TFPI of human plasma; assay: cell-based or functional assay; remark: listed apart in the source
[4] = target: T2, human TFPI alpha (full-length TFPIα); assay: cell-based or functional assay; remark: listed apart in the source
[5] = target: T3, TFPI (1-79) fragment, N-terminal and KPI-1 domain of TFPI with an N-terminally attached GSSGSSG tag (human, UniProt P10646 29-107); assay: SPR (Biacore T200), bispecific captured by anti-Fab kappa antibody, antigen as analyte, 1:1 Langmuir fit
T3 construct: also called tagged TFPI KPI-1/N-terminal; TFPI KPI-1
Protocol: (§1) Binding studies were performed on a Biacore T200 (GEHealthcare) that measures molecular interactions in real time through surface plasmon resonance. Experiments were run at 25° C. and the samples were stored at 15° C. in the sample compartment. The signal (RU, response units) reported by the Biacore is directly correlated to the mass on the individual sensor chip surfaces in four serial flow cells. Goat anti Fab Kappa Light Chain antibody (Nordic Biosite) was immobilized onto all four flow cells of a CM4 sensor chip according to the manufacturer's instructions. Capture of purified bispecific molecules was conducted by diluting the proteins into running buffer (10 mM Hepes 0.3 M NaCl, 5 mM CaCl₂, 0.05% surfactant P20, 10 mg/ml BSA, pH 7.4) and injected over flowcell 2, 3 or 4, creating a reference surface in flow cell 1 with only anti-Fab antibody immobilized. […] Binding of TFPI FL (SEQ ID NO: 1), TFPI (1-79), and TFPI KPI-2 proteins was conducted by injecting analyte (antigen) over all flow cells to allow for comparative analyses of binding to different captured bispecific molecules relative to binding to the reference surface. The TFPI (1-79) fragment spans the N-terminal and KPI-1 domain of TFPI with an N-terminally attached GSSGSSG tag (SEQ ID NO: 16). The TFPI KPI-2 fragment spans the KPI-2 domain of TFPI with a C-terminal HIS₆ tag (SEQ ID NO: 3). Antigens were diluted serially into running buffer, injected at 30 μl/min for 240 s and allowed to dissociate for 600 s or 14000 s. Prolonging the monitoring of dissociation phase for antigens that dissociates slowly with kd approaching 1E-5 s⁻¹ is crucial to get a robust value for the dissociation rate. The CM4 surface was regenerated after each injection cycle of analyte via injection of 10 mM Glycine, pH 2.1. This regeneration step removed the anti-TFPI bispecific molecule and any bound antigen from the immobilized capture antibody surface, and allowed for the subsequent binding of the next interaction sample pair.

[6] = target: TFPI KPI-2 fragment spanning the KPI-2 domain of TFPI with a C-terminal HIS6 tag (human, UniProt P10646 119-178); assay: as above
Protocol: as §1

[7] = target: TFPI (form not stated, Example 5) (UniProt P10646 29-304, limits assumed); assay: method not stated

Binder	EC50 (half-maximal response); thrombin generation, FVIII-neutralised plasma, no TFPI added; four-parameter fit, average of 2 experiments [1]	EC50 of the thrombin generation response in FVIII-neutralised plasma without added TFPI [1]	EC50; thrombin generation, FVIII-neutralised plasma + 10 nM full-length TFPI alpha; single experiment [2]	EC50 of the thrombin generation response in FVIII-neutralised plasma + 10 nM full-length TFPI alpha [2]	Peak (nM); thrombin generation, FVIII-neutralized plasma, no TFPI added; 10.0 nM mAb [3]	ttPeak (min); thrombin generation, FVIII-neutralized plasma, no TFPI added; 10.0 nM mAb [3]	Peak (nM); thrombin generation, FVIII-neutralized plasma + 10 nM TFPI alpha; 100.0 nM mAb [4]	ttPeak (min); thrombin generation, FVIII-neutralized plasma + 10 nM TFPI alpha; 100.0 nM mAb [4]	Kd [5]	koff [5]	kon [5]	Kd [6]	koff [6]	kon [6]	fold lower TFPI binding affinity than mAb 2021 [7]
BiFab 9041 (bispecific antibody, C-terminal cysteine linked through the bis-maleimide linker to the C-terminal cysteine of the other Fab's heavy chain; C-terminal cysteine linked through 1,16-bis(2,5-pyrroledione-1-yl)-4,13-diaza-7,10-dioxa-3,14-dioxohexadecane to the C-terminal cysteine of the other Fab's heavy chain, also called Fab 0088 conjugated to Fab 0295) heavy 1: EVQLVESGGGLVKPGGSLRLSCAASGFTFSNYAMSWVRQTPEKRLEWVATISRSGSYSYFPDSVQGRFTISRDNAKNSLYLQMNSLRAEDTAVYYCARLGGYDEGDAMDSWGQGTTVTVSSASTKGPSVFPLAPCSRSTSESTAALGCLVKDYFPEPVTVSWNSGALTSGVHTFPAVLQSSGLYSLSSVVTVPSSSLGTKTYTCNVDHKPSNTKVDKRVESKYGPPC light 1: DIVMTQTPLSLSVTPGQPASISCKSSQSLLESDGKTYLNWYLQKPGQSPQLLIYLVSILDSGVPDRFSGSGSGTDFTLKISRVEAEDVGVYYCLQATHFPQTFGGGTKVEIKRTVAAPSVFIFPPSDEQLKSGTASVVCLLNNFYPREAKVQWKVDNALQSGNSQESVTEQDSKDSTYSLSSTLTLSKADYEKHKVYACEVTHQGLSSPVTKSFNRGEC heavy 2: QVQLKQSGPGLVQPSQSLSITCTVSGFSLTNYGVHWVRQSPGKGLEWLAVIWRGGSIDYNAAFMSRLSITKDNSKSQVFFKMNSLQADDTAIYYCAKNSHGNYVGYAMDYWGQGTSVTVSSASTKGPSVFPLAPCSRSTSESTAALGCLVKDYFPEPVTVSWNSGALTSGVHTFPAVLQSSGLYSLSSVVTVPSSSLGTKTYTCNVDHKPSNTKVDKRVESKYGPPC light 2: GIVMTQSQKFMSTTVGDRVSITCKASQSVGPAVAWYQQKPGQSPKLLIYSASNRYTGVPDRFTGSGSGADFTLTISNLHSEDLADYFCQQYTSYPTFGGGTKLEIKRTVAAPSVFIFPPSDEQLKSGTASVVCLLNNFYPREAKVQWKVDNALQSGNSQESVTEQDSKDSTYSLSSTLTLSKADYEKHKVYACEVTHQGLSSPVTKSFNRGEC	–	–	–	–	–	–	–	–	0.9 nM	0.0003 s⁻¹	300000 M⁻¹ s⁻¹	0.01 nM	6e-05 s⁻¹	4e+06 M⁻¹ s⁻¹	–
mAb 2007 (antibody, V domains shown, Grafted HzTFPI4F36 with a single A60P (Kabat) back mutation in VH) VH: EVQLVESGGGLVKPGGSLRLSCAASGFTFSNYAMSWVRQAPGKGLEWVSTISRSGSYSYYPDSVKGRFTISRDNAKNSLYLQMNSLRAEDTAVYYCARLGGYDEGDAMDSWGQGTTVTVSS VL: DIVMTQTPLSLSVTPGQPASISCKSSQSLLESDGKTYLNWYLQKPGQSPQLLIYLVSILDSGVPDRFSGSGSGTDFTLKISRVEAEDVGVYYCLQATHFPQTFGGGTKVEIKR	–	–	–	–	–	–	–	–	–	–	–	–	–	–	10 fold

Second part, the binder after the results:

EC50 (half-maximal response); thrombin generation, FVIII-neutralised plasma, no TFPI added; four-parameter fit, average of 2 experiments [1]	EC50 of the thrombin generation response in FVIII-neutralised plasma without added TFPI [1]	EC50; thrombin generation, FVIII-neutralised plasma + 10 nM full-length TFPI alpha; single experiment [2]	EC50 of the thrombin generation response in FVIII-neutralised plasma + 10 nM full-length TFPI alpha [2]	Peak (nM); thrombin generation, FVIII-neutralized plasma, no TFPI added; 10.0 nM mAb [3]	ttPeak (min); thrombin generation, FVIII-neutralized plasma, no TFPI added; 10.0 nM mAb [3]	Peak (nM); thrombin generation, FVIII-neutralized plasma + 10 nM TFPI alpha; 100.0 nM mAb [4]	ttPeak (min); thrombin generation, FVIII-neutralized plasma + 10 nM TFPI alpha; 100.0 nM mAb [4]	Kd [5]	koff [5]	kon [5]	Kd [6]	koff [6]	kon [6]	fold lower TFPI binding affinity than mAb 2021 [7]	Binder
1.1 nM	1.1 nM	9.5 nM	9.5 nM	182 nM	6.9 min	177 nM	7 min	0.3 nM	0.0001 s⁻¹	400000 M⁻¹ s⁻¹	0.02 nM	8e-05 s⁻¹	5e+06 M⁻¹ s⁻¹	–	mAb 0421 (bispecific antibody, human IgG1, kappa, Full length human IgG1 format, made by controlled Fab-arm exchange; also called asymmetric bispecific antibody derived from mAb 0310 and mAb 0336) heavy 1: not shown light 1: DIVMTQTPLSLSVTPGQPASISCKSSQSLLESDGKTYLNWYLQKPGQSPQLLIYLVSILDSGVPDRFSGSGSGTDFTLKISRVEAEDVGVYYCLQATHFPQTFGGGTKVEIKRTVAAPSVFIFPPSDEQLKSGTASVVCLLNNFYPREAKVQWKVDNALQSGNSQESVTEQDSKDSTYSLSSTLTLSKADYEKHKVYACEVTHQGLSSPVTKSFNRGEC heavy 2: not shown light 2: GIVMTQSQKFMSTTVGDRVSITCKASQSVGPAVAWYQQKPGQSPKLLIYSASNRYTGVPDRFTGSGSGADFTLTISNLHSEDLADYFCQQYTSYPTFGGGTKLEIKRTVAAPSVFIFPPSDEQLKSGTASVVCLLNNFYPREAKVQWKVDNALQSGNSQESVTEQDSKDSTYSLSSTLTLSKADYEKHKVYACEVTHQGLSSPVTKSFNRGEC
–	–	–	–	–	–	–	–	–	–	–	–	–	–	~1000 fold	mAb 2000 (antibody, IgG4, V domains shown, Human kappa/IgG4 (S241P); also called initial grafted HzTFPI4F36 variant) VH: EVQLVESGGGLVKPGGSLRLSCAASGFTFSNYAMSWVRQAPGKGLEWVSTISRSGSYSYYADSVKGRFTISRDNAKNSLYLQMNSLRAEDTAVYYCARLGGYDEGDAMDSWGQGTTVTVSS VL: DIVMTQTPLSLSVTPGQPASISCKSSQSLLESDGKTYLNWYLQKPGQSPQLLIYLVSILDSGVPDRFSGSGSGTDFTLKISRVEAEDVGVYYCLQATHFPQTFGGGTKVEIKR
